Results on one substance are retold here after publication PMC4967302.

The term Kd denotes the constant that tells how readily two partners part at equilibrium. What is called Ki is the dissociation constant of the complex between target and ligand, obtained from inhibition or displacement. Low readings indicate a stronger hold on the target, high ones a looser hold on the target.

Test [1] deals with CCR5 in crude membranes from CCR5-expressing HEK 293T cells (UniProt P51681). The test is described as follows: radioligand binding; equilibrium saturation binding of 35S-labeled gp120 to crude membranes from CCR5-expressing HEK 293T cells, room temperature, in the presence of 200 nM soluble CD4; non-specific binding measured with 10 µM maraviroc; one-site binding model.
Test [2] concerns the target CD4 exposed at the surface of HEK 293T cells (UniProt P01730). As to the kind of experiment: flow cytometry on cells. (Flow cytometry measures light scatter and fluorescence of single cells or particles in a stream.)

UniProt P51681, sequence (P51681 whole entry): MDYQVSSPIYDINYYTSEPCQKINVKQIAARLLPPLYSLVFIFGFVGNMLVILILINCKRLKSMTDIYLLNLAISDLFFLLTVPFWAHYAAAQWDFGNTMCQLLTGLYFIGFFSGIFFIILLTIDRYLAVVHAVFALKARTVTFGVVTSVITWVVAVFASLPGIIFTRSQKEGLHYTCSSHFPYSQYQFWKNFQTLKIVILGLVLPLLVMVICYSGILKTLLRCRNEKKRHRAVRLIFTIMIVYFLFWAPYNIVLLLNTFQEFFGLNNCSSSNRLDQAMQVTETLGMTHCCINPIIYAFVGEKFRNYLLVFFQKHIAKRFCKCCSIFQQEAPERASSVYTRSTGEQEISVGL

Consider “purified soluble wt B gp120 (domain or fragment)”, for which the Kd in test [1] was 8.4 nM. For the same substance, the Ki in test [2] stood at 3.9 nM.
